For this data set, the target named is 14-3-3 proteins.

B1: ARAF mutant (ARAF-S214P), full-length, with two FLAG tags and two STREP tags, expressed in HEK293T cells (protein)
chain: DYKDDDDKDYKDDDDKWSHPQFEKWSHPQFEKMEPPRGPPANGAEPSRAVGTVKVYLPNKQRTVVTVRDGMSVYDSLDKALKVRGLNQDCCVVYRLIKGRKTVTAWDTAIAPLDGEELIVEVLEDVPLTMHNFVRKTFFSLAFCDFCLKFLFHGFRCQTCGYKFHQHCSSKVPTVCVDMSTNRQQFYHSVQDLSGGSRQHEAPSNRPLNELLTPQGPSPRTQHCDPEHFPFPAPANAPLQRIRSTPTPNVHMVSTTAPMDSNLIQLTGQSFSTDAAGSRGGSDGTPRGSPSPASVSSGRKSPHSKSPAEQRERKSLADDKKKVKNLGYRDSGYYWEVPPSEVQLLKRIGTGSFGTVFRGRWHGDVAVKVLKVSQPTAEQAQAFKNEMQVLRKTRHVNILLFMGFMTRPGFAIITQWCEGSSLYHHLHVADTRFDMVQLIDVARQTAQGMDYLHAKNIIHRDLKSNNIFLHEGLTVKIGDFGLATVKTRWSGAQPLEQPSGSVLWMAAEVIRMQDPNPYSFQSDVYAYGVVLYELMTGSLPYSHIGCRDQIIFMVGRGYLSPDLSKISSNCPKAMRRLLSDCLKFQREERPLFPQILATIELLQRSLPKIERSASEPSLHRTQADELPACLLSAARLVP
B1: the “activation of ERK1/2, as measured by increased phosphorylation” value was “significantly greater activation of ERK1/2, as measured by increased phosphorylation, compared with HEK293T cells expressing wildtype (WT) ARAF”.

(Values after patent publication US20220112558.)
